Data on 2 molecules can be found in patent publication US12325756.

Test [1] deals with human mesothelin on tumor cells (C30-M, C30M/F, A1847) (human), Q13421. Kind of test: cell-based or functional assay.
Test [2] concerns the target human alpha-folate receptor on tumor cells (C30-F, C30M/F, A1847) (human), P15328. Kind of test: cell-based or functional assay.

Sequence of human alpha-folate receptor on tumor cells (C30-F, C30M/F, A1847) (human), P15328 (P15328 25-234, stated change not applied): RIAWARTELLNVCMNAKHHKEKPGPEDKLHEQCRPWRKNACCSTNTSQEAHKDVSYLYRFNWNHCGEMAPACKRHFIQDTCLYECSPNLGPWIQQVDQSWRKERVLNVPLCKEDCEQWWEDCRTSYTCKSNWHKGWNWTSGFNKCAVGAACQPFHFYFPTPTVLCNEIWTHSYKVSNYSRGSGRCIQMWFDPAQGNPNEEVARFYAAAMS
Sequence of human mesothelin on tumor cells (C30-M, C30M/F, A1847) (human), Q13421 (Q13421 other isoform, or with tags, fused parts or gaps C30M C30M): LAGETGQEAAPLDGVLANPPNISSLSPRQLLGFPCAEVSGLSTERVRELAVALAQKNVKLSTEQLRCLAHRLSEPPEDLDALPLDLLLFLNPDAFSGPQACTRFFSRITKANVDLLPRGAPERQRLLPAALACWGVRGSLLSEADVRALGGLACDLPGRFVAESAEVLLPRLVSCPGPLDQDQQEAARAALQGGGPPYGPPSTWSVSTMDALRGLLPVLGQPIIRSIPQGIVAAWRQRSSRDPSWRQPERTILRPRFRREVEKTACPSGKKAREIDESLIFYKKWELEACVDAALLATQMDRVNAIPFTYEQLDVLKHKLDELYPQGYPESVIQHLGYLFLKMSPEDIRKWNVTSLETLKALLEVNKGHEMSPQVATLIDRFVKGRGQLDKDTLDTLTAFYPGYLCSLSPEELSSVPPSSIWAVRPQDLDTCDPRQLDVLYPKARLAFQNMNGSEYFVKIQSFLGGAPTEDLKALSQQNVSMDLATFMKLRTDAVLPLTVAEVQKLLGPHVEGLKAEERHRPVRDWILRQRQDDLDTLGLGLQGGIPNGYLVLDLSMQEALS

B1: P4-z anti-mesothelin chimeric antigen receptor (P4 scFv - CD8a hinge and transmembrane region - CD3z) (protein)
chain: GSQVQLQQSGPGLVTPSQTLSLTCAISGDSVSSNSATWNWIRQSPSRGLEWLGRTYYRSKWYNDYAVSVKSRMSINPDTSKNQFSLQLNSVTPEDTAVYYCARGMMTYYYGMDVWGQGTTVTVSSGILGSGGGGSGGGGSGGGGSQPVLTQSSSLSASPGASASLTCTLRSGINVGPYRIYWYQQKPGSPPQYLLNYKSDSDKQQGSGVPSRFSGSKDASANAGVLLISGLRSEDEADYYCMIWHSSAAVFGGGTQLTVLSASTTTPAPRPPTPAPTIASRPLSLRPEACRPAAGGAVHTRGLDFACDIYIWAPLAGTCGVLLLSLVITLYCRVKFSRSADAPAYQQGQNQLYNELNLGRREEYDVLDKRRGRDPEMGGKPRRKNPQEGLYNELQKDKMAEAYSEIGMKGERRRGKGHDGLYQGLSTATKDTYDALHMQALPPR
Turning to B1, the apoptosis (annexin V / 7-AAD) after 3 days with A1847 in test [1] stood at 34%.

B2: MOV19-28 (F-28) costimulatory-only anti-aFR chimeric antigen receptor (MOv-19 scFv - CD8a hinge - CD28 transmembrane - CD28 intracellular domain) (protein)
chain: GSSRAAQPAMAQVQLQQSGAELVKPGASVKISCKASGYSFTGYFMNWVKQSHGKSLEWIGRIHPYDGDTFYNQNFKDKATLTVDKSSNTAHMELLSLTSEDFAVYYCTRYDGSRAMDYWGQGTTVTVSSGGGGSGGGGSGGGGSDIELTQSPASLAVSLGQRAIISCKASQSVSFAGTSLMHWYHQKPGQQPKLLIYRASNLEAGVPTRFSGSGSKTDFTLNIHPVEEEDAATYYCQQSREYPYTFGGGTKLEIKRAAASTTTPAPRPPTPAPTIASQPLSLRPEACRPAAGGAVHTRGLDFACDFWVLVVVGGVLACYSLLVTVAFIIFWVRSKRSRLLHSDYMNMTPRRPGPTRKHYQPYAPPRDFAAYRS
The molecule B2 yielded an apoptosis (annexin V / 7-AAD) after 3 days with A1847 in test [2] of 0.5 to 1%.
